In patent US20200397886A1 (University of Washington, published 2020):

Target: T1, I53-50A
T1 construct: Trimeric nanostructure component without antigen, used in the 33% and 66% valency particles; also called I53-50A trimers
T1 chain: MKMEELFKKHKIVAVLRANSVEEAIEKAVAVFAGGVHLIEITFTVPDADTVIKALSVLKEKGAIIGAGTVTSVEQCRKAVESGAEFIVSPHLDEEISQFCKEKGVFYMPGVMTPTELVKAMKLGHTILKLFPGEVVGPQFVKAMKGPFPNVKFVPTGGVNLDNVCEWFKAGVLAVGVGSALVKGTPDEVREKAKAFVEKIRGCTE
Assay: in vitro co-assembly of partial valency particles

B1: I53-50B.4PosT1 (designed binder)
chain: MNQHSHKDHETVRIAVVRARWHAEIVDACVSAFEAAMRDIGGDRFAVDVFDVPGAYEIPLHARTLAETGRYGAVLGTAFVVNGGIYRHEFVASAVINGMMNVQLNTGVPVLSAVLTPHNYDKSKAHTLLFLALFAVKGMEAARACVEILAAREKIAA
notes: Pentameric nanostructure component expressed in E. coli; the N-terminal methionine is said to be optional; also called I53-50B.4PT1; I53-50B.4PT
B1: binds.
